Experimental data reported in article PMC6294249, “CryoEM reveals how the complement membrane attack complex ruptures lipid bilayers” (Nature Communications, 2018).

Columns and labels:
[1] = target: T1, complement C8 alpha chain (human, UniProt P07357 31-584, N-linked glycan at N407); assay: cryo-EM structure; human MAC assembled on DOPC:DOPE liposomes by sequential addition of C5b6, C7, C8 and C9 (molar ratio 1:1:1:18, 1 h at 37 °C, then 4 °C overnight; 20 mM HEPES-NaOH, 150 mM NaCl, pH 7.4), solubilised in Cymal-5, purified by sucrose density centrifugation; open and closed conformations separated by 3D classification; conditions: both partners purified
T1 construct: complement component C8 alpha chain, human; It stood in the assay as one chain of the bought C8 heterotrimer (α, β, γ); also called C8α; source: bought: Complement Technology (as C8)

complement C6 = target: T2, complement C6 (human, UniProt P13671 22-934); assay: as above; conditions: both partners purified
T2 construct: complement component C6, human; 10 domains (TSP1, TSP2, LDL, MACPF, EGF, TSP3, CCP1, CCP2, FIM1, FIM2); It stood in the assay as part of the bought C5b6 complex; FIM1 and FIM2 were left out of the atomic model (weak or no density); source: bought: Complement Technology (as the C5b6 complex)
T2 sequence (P13671 22-934): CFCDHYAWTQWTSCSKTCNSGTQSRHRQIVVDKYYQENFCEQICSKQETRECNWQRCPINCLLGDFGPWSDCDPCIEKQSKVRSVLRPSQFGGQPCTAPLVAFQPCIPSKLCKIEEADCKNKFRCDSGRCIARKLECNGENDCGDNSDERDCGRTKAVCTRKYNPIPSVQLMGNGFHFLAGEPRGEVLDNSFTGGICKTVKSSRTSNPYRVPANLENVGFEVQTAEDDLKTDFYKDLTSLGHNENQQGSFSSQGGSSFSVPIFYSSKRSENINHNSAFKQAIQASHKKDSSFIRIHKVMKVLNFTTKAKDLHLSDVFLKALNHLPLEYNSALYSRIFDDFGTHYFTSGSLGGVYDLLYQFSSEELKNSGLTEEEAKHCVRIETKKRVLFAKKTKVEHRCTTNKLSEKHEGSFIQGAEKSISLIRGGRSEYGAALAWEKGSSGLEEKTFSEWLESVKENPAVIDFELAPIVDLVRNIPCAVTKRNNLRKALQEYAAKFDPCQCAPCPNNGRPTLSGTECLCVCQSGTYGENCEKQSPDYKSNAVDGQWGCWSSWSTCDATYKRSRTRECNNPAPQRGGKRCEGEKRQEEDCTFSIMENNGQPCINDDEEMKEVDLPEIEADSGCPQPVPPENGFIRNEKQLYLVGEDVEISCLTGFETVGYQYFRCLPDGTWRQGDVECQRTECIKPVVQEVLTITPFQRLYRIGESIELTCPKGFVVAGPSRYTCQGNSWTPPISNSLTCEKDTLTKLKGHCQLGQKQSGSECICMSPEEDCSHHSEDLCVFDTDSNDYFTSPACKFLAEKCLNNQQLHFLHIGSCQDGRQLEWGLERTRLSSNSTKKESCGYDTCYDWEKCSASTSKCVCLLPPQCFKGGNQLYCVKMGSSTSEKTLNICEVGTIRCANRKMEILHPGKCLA

T1 sequence (P07357 31-584): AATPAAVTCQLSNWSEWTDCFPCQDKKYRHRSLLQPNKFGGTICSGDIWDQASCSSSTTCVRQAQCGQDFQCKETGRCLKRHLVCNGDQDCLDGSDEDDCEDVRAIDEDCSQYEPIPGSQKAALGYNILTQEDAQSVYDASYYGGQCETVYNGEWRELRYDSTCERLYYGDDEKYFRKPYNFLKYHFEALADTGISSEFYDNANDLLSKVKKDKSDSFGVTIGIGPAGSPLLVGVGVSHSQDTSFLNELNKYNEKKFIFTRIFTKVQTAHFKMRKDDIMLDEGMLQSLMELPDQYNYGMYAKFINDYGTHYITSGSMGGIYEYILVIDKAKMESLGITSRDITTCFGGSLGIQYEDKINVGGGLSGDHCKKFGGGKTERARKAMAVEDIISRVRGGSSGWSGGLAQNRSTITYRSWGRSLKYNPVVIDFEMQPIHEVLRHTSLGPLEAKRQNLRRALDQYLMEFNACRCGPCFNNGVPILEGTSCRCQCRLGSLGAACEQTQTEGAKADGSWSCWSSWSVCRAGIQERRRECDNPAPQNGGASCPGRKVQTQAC

B1: complement C9 (natural protein)
chain: not shown
modifications: N-linked glycans at N215, N256, N394; O-linked glycan at T427
notes: complement component C9, human; The model began from a homology model with C8β as template; source: bought: Complement Technology
B1: binds [1]; binds (complement C6).
